Laboratory results as given in patent US20230025707A1 (University of Pennsylvania, published 2023).
Where a chain is given by its changes, count along the chain named.

B1: 9092 (antibody, IgG1, V domains shown)
VH: QVQLQQSGPELVKPGASVRISCKASGYTFTTFYLHWVKQRPGQGLEWIGWIYPVNVKIKYSERFKGKATLTADKSSSTAYMQLGSLTSEDSAVYFCVRGGRGLDYWGQGTTLTVSS
VL: NIMMTQSPSSLAVSAGEKVTMSCKSSQSVLYSSNQKNYLAWYQQKPGQSPKMLIYWASFRESGVPDRFTGSGSGTDFTLTISSVQAEDLAVYYCHQYLSLFTFGSGTKLEIK
B2: 9060 (antibody, IgG1, V domains shown)
VH: EVHLVESGGGLVQPKGSLKLSCAASGFTFNTYAMHWVRQAPGKGLEWVARIRNKSNNYATYYADSVKDRFTISRDDSQSMLFLQMDNLKTEDTAIYYCVRGGLSPFDYWGQGTTLTVSS
VL: QIVLTQSPAIMSASPGEKVTMTCSASSSVTYMHWYQQKSGTSPKRWIYDTSKLASGVPARFSGSGSGTSYSLTISSMEAEDAATYYCQQWSSNPPTFGGGTKLEIR
B3: 9110 (antibody, IgG1, V domains shown)
VH: B2 VH
VL: B2 VL
B4: 9071 (antibody, IgG1, V domains shown)
VH: B2 VH
VL: B2 VL
B5: 9064 (antibody, IgG1, V domains shown)
VH: B2 VH
VL: B2 VL
B6: 9009 (antibody, IgG1, V domains shown)
VH: B2 VH with H3Q, N53S, K54E, Y58F, R69S, F82Y, D86N, I95V
VL: B2 VL with T30S, S75N, S92R, R106K
B7: 9004 (antibody, IgG2b, V domains shown)
VH: B2 VH with N53S, F82Y, D86N, I95M
VL: B2 VL
B8: 9003 (antibody, IgG1, V domains shown)
VH: B2 VH with H3Q, N53S, K54E, Y58F, R69S, F82Y, D86N, I95V
VL: B2 VL with T30S, S75N, S92R, R106K
B9: 9014 (antibody, IgG1, V domains shown)
VH: B2 VH with H3Q, N53S, K54E, Y58F, R69S, F82Y, D86N, I95V
VL: B2 VL with T30S, S75N, S92R, R106K
B10: 9047 (antibody, IgG2b, V domains shown)
VH: EVQLVESGGGLVKPGGSLKLSCGASGFTFSSFAMSWVRQTPEKRLEWVATISNGGSYTYYPDSVKGRFTISRDNAKNTLYLRMSSLRSEDTALYYCTRRSSTRGFFDYWGPGTTLTVSS
VL: QIFLTQSPAIMSASPGEKVTMTCSASSSVTYMYWYQQNPGSSPRLLIYDSSKLASGVPVRFSGSGSGTSYSLTISRMEAEDATTYYCQQWKSYPPTFGTGTKLDLK
B11: 9005 (antibody, IgG1, V domains shown)
VH: EVMLVESGGGLVKSGGSLKLSCAASGFTFSSYAMSWVRQTPEKRLEWVATISTGGGYTYYPDSVKGRFTISRDNAKNTLYLQMSSLRSEDTAMYYCVRRGTARGYFDVWGAGTTVTVSS
VL: QIVLTQSPAIMSASPGEKVTMTCSASSSVSYMYWYQQKPESSPRLLIYDTSNLASGVPVRFSGSGSGTSYFLTISRMEAEDAATYYCQQWKTYPPTFGGGTKLEIK
B12: 9099 (antibody, IgG2b, V domains shown)
VH: B10 VH with G10V, G23A, L93M, T97V, S100A, S101T, F105Y, P111Q
VL: B10 VL with T30S, N38K, R60Q, T83A, K91R, T99A, D104E
B13: 9100 (antibody, IgG2b, V domains shown)
VH: B10 VH with G10V, G23A, L93M, T97V, S100A, S101T, F105Y, P111Q
VL: B10 VL with T30S, N38K, R60Q, T83A, K91R, T99A, D104E
B14: 9052 (antibody, IgG2b, V domains shown)
VH: B10 VH with G10V, G23A, L93M, T97V, S100A, S101T, F105Y, P111Q
VL: B10 VL with T30S, N38K, R60Q, T83A, K91R, T99A, D104E
B15: 9021 (antibody, IgG1, V domains shown)
VH: B11 VH with L4M, S14P, S31N, V64M, V97A
VL: B11 VL
B16: 9035 (antibody, IgG2b, V domains shown)
VH: B10 VH with K65Q, L93M, T97A, P111H
VL: B10 VL with T30S, N38K, R60Q, T83A, K91R, T99A, D104E
B17: 9096 (antibody, IgG2b, V domains shown)
VH: B10 VH with G23A, S31G, F32Y, N77K, R82Q, L93M, S100A, S101A, F105Y, P111Q
VL: B11 VL with E40G, N52K, F71S, K91R, T92S, G99A, I105L
B18: 9018 (antibody, IgG2b, V domains shown)
VH: B11 VH with S14P, I70V, V97A, A102S
VL: B11 VL with V3I, K102R

Biological target: T1, human α-Synuclein pre-formed fibrils (human, UniProt P37840 1-140)
Experiment: cell-based or functional assay

Row | % Inhibition (primary neuron assay) [%] | Binder
1 | -27.9 | B1
2 | 83.8 | B2
3 | 81.6 | B3
4 | 79.3 | B4
5 | 88.1 | B5
6 | 81 | B6
7 | 62.7 | B7
8 | 82 | B8
9 | 81.7 | B9
10 | 84.3 | B10
11 | 90.3 | B11
12 | 85.3 | B12
13 | 91.3 | B13
14 | 84.3 | B14
15 | 84.7 | B15
16 | 79 | B16
17 | 85.1 | B17
18 | 86.5 | B18

Biological target: Lewy body α-Synuclein (human, UniProt P37840 1-140)
Experiment: IHC, human amygdala; OD of Lewy bodies / OD of tissue
Description: FIG. 2A: Sections of amygdala tissue containing abundant Lewy body pathology were stained using undiluted or 1:3 diluted hybridoma supernatant. […] FIG. 2B: The optical density within Lewy bodies divided by the optical density of a 1 mm² tissue section containing those Lewy bodies was defined as the Lewy Body Discrimination Index. Antibodies preferentially recognizing Lewy bodies score high on this measure.
In order to rapidly screen for antibody selectivity to pathological α-Synuclein, amygdala sections from PD patients with abundant LB pathology were immunostained. Hybridoma supernatants were used undiluted or at a 1:3 dilution on screening slides processed in parallel to allow direct comparison of immunostaining. […] A value of 1 indicates no discrimination of LBs over normal synaptic neuropil staining.

Row | LB Discrimination Index | Binder
19 | 1.9 | B1
20 | 1.92 | B2
21 | 1.73 | B3
22 | 1.89 | B4
23 | 1.95 | B5
24 | 1.82 | B6
25 | 1.91 | B7
26 | 1.94 | B8
27 | 1.87 | B9
28 | 2.46 | B10
29 | 1.68 | B11
30 | 1.47 | B12
31 | 1.62 | B13
32 | 1.74 | B14
33 | 1.81 | B15
34 | 1.9 | B16
35 | 1.3 | B17
36 | 1.78 | B18

Biological target: T1, human α-Synuclein pre-formed fibrils
Experiment: sandwich ELISA; PFF vs monomer from EC50s, Syn211 as control
Protocol: Fibrils were then sonicated on high for 10 cycles of 30 seconds on, 30 seconds off (Diagenode Biorupter UCD-300 bath sonicator) prior to dilutions. Dilutions were added to each well (30 μL per well) and incubated overnight at 4° C. The plate was washed 4 times with PBST. 30 μL of MJF-R1 (1:3,000, Abcam Cat #ab138501) in Buffer C was added to each well and the plate was incubated for 4 hours at 37° C. After washing with PBST 4 times, 1:10 k diluted goat-anti-rabbit IgG-HRP conjugate (Cell Signaling Technology) was added to the plate and the plate was incubated for 1 hour at 37° C.
This assay retains the conformation of α-Synuclein by allowing binding of α-Synuclein that is in solution to immobilized antibody, and allows a broad range of affinity detection. Antibodies of interest were coated on an ELISA plate and either α-Synuclein monomer or PFF were incubated with the antibodies at increasing α-Synuclein concentrations to determine relative affinity of the antibodies for each form of α-Synuclein.
By fitting the absorbance values with a sigmoid dose curve, EC₅₀ values were calculated for each antibody.

Row | PFF Preference | Binder
37 | 93.8 | B1
38 | 0.73 | B2
39 | 0.533 | B3
40 | 0.605 | B4
41 | 0.855 | B5
42 | 0.507 | B6
43 | 1.02 | B7
44 | 0.565 | B8
45 | 0.478 | B9
46 | 133 | B10
47 | 1.31 | B11
48 | 5.26 | B12
49 | 2.73 | B13
50 | 1.47 | B14
51 | 1 | B15
52 | 2.11e+08 | B16
53 | 1.01 | B17
54 | 1.45 | B18
